This assay has as its target α5 integrin (endogenous) (mouse) (UniProt P11688). Put plainly: cell-based or functional assay.

Chain of α5 integrin (endogenous) (mouse) (P11688 45-1053): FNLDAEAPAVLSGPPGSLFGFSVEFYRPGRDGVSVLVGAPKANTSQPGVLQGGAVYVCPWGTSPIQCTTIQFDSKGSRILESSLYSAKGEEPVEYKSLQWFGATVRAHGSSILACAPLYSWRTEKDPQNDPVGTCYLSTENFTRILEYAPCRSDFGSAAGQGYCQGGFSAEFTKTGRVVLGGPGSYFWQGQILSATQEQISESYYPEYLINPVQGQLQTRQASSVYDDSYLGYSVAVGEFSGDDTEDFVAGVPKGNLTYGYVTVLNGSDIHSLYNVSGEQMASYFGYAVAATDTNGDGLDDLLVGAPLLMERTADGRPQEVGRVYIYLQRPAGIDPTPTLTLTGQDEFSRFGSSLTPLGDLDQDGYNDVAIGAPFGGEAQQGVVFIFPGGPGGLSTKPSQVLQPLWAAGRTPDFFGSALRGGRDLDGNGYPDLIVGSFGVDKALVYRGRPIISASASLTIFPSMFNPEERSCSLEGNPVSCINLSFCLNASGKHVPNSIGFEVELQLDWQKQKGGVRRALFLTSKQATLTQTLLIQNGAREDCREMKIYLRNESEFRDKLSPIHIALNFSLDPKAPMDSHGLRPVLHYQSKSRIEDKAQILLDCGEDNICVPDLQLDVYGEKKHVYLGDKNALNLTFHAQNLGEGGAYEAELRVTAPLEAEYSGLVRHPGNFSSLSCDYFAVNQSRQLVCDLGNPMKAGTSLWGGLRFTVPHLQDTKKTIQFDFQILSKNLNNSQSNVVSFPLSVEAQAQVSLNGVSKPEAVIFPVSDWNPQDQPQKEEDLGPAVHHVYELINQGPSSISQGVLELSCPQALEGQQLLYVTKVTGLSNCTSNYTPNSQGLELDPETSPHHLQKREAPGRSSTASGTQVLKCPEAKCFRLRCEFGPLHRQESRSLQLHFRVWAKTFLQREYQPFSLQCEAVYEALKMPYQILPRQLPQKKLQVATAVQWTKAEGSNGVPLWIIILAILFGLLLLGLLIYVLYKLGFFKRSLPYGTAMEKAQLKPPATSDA

With GFP-Mena (from UniProt Q03173 1-802), the t1/2 of fluorescence recovery (FRAP) in nascent, peripheral adhesions, cells plated for 30 minutes on FN was 18.9 s.
